Results from US20110064740A1.

How the values were obtained:
[1] = molecular target: Cell-surface full length amyloid precursor protein (APP) on HEK293T cells transfected with wild type APP DNA (UniProt P05067); assay: FMAT ABI8200, HEK293T cells transfected with wild type APP, mock subtracted; Experiment 2
[2] = molecular target: Cell-surface full length amyloid precursor protein (APP) on HEK293T cells transfected with wild type APP DNA (UniProt P05067); assay: FMAT ABI8200, HEK293T cells transfected with wild type APP, mock subtracted; Experiment 1

Cell-surface full length amyloid precursor protein (APP) on HEK293T cells transfected with wild type APP DNA, sequence (P05067 18-770): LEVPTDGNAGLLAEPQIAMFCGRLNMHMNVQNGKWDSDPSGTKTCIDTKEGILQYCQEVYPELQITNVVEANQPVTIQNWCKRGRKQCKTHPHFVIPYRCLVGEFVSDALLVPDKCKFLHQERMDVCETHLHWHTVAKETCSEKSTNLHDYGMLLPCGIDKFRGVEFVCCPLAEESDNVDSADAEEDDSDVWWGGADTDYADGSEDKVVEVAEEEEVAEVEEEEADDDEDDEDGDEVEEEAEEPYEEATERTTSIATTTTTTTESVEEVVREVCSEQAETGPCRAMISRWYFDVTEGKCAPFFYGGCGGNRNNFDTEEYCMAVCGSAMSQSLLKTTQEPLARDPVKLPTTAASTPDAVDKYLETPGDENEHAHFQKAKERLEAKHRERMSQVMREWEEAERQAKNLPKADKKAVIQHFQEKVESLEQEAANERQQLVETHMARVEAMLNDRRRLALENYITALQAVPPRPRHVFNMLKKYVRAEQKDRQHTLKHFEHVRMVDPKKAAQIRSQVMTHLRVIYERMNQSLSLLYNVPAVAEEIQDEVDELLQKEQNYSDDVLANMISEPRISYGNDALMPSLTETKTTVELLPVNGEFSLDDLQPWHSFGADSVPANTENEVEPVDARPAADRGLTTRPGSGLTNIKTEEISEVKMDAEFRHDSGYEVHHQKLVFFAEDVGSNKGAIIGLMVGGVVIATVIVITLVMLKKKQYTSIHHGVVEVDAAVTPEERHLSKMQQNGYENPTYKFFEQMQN

Substance | % of LN27 binding [1] [%] | % of LN27 binding [2] [%]
LN27 (Zymed) mouse IgG to extracellular domain of APP (antibody) | 100 | 100
Antibody G210 which recognises the x-40 form of the β-amyloid peptide | 2 | 5.5
